We go through one molecule from patent US20190041402A1 (GOVERNING COUNCIL OF THE UNIVERSITY OF TORONTO, published 2019).

In assay [1] the target is T1, soluble human αKlotho (recombinant) (human, UniProt Q9UEF7 34-981).
T1 construct: also called Hu aKL; recombinant human αKlotho
T1 sequence (looked up): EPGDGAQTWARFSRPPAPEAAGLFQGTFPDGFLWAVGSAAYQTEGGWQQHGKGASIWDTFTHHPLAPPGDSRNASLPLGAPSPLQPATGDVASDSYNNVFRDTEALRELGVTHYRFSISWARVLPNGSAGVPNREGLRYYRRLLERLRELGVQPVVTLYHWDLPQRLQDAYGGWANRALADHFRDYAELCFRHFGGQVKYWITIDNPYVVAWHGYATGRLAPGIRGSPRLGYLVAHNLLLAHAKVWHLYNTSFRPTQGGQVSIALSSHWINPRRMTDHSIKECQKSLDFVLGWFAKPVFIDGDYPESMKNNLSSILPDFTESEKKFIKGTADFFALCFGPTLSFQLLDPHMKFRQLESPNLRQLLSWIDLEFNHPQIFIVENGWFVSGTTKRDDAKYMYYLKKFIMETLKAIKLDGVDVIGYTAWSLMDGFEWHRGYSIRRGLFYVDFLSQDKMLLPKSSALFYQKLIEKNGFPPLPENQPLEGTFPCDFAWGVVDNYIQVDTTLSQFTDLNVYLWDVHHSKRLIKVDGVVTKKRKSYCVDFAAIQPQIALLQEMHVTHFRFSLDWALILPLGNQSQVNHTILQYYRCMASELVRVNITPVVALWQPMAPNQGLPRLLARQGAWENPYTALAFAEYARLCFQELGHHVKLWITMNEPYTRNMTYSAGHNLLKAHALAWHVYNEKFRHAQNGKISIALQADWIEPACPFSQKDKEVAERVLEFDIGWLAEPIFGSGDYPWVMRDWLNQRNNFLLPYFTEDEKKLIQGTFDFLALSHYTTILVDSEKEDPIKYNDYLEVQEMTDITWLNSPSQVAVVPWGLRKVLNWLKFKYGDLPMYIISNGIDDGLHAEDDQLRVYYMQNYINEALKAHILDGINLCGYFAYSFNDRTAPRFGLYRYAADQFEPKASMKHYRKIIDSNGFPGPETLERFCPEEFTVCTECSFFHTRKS
Briefly: competitive Fab-phage ELISA, soluble human αKlotho against immobilised human αKlotho. The procedure:
(A) CDR sequences and VH domain framework region residues variable in Library F for anti-αKlotho sb106, according to the IMGT (international ImMunoGeneTics database) numbering scheme. IMGT CDR residues are underlined, IMGT framework region residues are not underlined, residues at IMGT positions which were randomized in the selection library are bold. (B) Specificity determination of anti-αKlotho sb106 by Fab-phage ELISA: sb106 Fab-phage were incubated with the following immobilized antigens: a complex of FGFR1c/αKlotho complex (aKL-R1), FGFR1c alone (R1), human αKlotho (Hu aKL) and mouse αKlotho (Mu aKL), or neutravidin (NA) and bovine serum albumin (BSA) as negative controls. After washing off unbound phage, bound phages were detected using an HRP-conjugated anti-phage antibody. Colorimetric HRP reagents allow for absorbance readings at 450 nm. […] The binding signals to immobilized human αKlotho reported are an average of two data sets.
Binding selections, phage ELISAs and Fab protein purification were performed as described. Briefly, phage from library F were cycled through rounds of panning with the binary complex of αKlotho extracellular domain and FGFR1c ligand-binding domain on 96-well Maxisorp Immunoplates (Fisher Scientific, Nepean, ON, Canada) as the capture target. […]

For assay [2], the target named is T2, mouse αKlotho (mouse, UniProt O35082 35-982).
T2 construct: also called Mu aKL
T2 sequence (looked up): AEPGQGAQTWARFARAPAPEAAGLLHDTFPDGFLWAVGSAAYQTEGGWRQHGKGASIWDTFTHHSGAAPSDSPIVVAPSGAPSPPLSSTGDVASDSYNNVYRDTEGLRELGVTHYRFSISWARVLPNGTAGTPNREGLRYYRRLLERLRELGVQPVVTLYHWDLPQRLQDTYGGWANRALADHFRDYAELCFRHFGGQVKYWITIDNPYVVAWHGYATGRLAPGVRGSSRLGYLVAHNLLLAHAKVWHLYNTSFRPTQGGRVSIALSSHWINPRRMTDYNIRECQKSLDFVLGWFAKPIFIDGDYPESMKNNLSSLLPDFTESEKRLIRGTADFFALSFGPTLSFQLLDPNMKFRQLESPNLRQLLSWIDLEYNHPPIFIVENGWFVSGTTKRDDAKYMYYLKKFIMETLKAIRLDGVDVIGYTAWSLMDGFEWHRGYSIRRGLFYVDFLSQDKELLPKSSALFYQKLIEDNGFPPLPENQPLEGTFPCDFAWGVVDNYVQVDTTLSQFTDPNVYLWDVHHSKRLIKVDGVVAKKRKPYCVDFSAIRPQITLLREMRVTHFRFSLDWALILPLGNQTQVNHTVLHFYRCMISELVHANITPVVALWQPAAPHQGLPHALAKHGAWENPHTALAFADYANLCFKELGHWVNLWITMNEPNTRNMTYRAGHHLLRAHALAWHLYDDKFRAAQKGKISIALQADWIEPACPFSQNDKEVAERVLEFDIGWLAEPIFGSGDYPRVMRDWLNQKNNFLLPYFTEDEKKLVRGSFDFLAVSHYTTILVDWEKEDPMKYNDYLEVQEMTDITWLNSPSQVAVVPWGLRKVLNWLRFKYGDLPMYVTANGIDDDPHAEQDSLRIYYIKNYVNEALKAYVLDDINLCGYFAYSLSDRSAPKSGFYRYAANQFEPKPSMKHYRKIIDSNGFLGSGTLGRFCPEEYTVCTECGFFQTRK
Briefly: SPR (ProteOn XPR36), Fab captured by anti-IgG(H+L), mouse αKlotho injected in serial dilutions, Langmuir fit. As to the method: (§1) Estimated affinities against human and mouse antigen for select αKlotho Fabs were obtained by surface plasmon resonance on a ProteOn XPR36 (FIG. 17). Fabs were captured using an anti-IgG(H+L) antibody and serial dilutions of αKlotho were injected. Binding curves were fitted to the Langmuir model. (A) Determined Kon, Koff and KD values. (B) and (C) Binding curves for human and mouse antigen respectively.

For assay [3], the target named is T2, mouse αKlotho. As to the kind of experiment: SPR (ProteOn XPR36), Fab captured by anti-IgG(H+L), mouse αKlotho injected in serial dilutions, Langmuir fit [continued) C.]. The procedure:
as §1

A word on the IC50: it is the concentration needed to halve the response being measured. As usually defined, the Kd is the constant that tells how readily two partners part at equilibrium. Low values mean a tighter complex, high ones a looser complex. Broadly, the koff is a measure of how fast the partners let go of each other. Lower therefore signals slow dissociation. In general, kon refers to the rate constant with which the complex forms. The low end stands for slow association, the high end for fast association.

B1: sb106 Fab (Fab, V domains shown)
VH: EVQLVESGGGLVQPGGSLRLSCAASGFNISYYSIHWVRQAPGKGLEWVAYISPSYGYTSYADSVKGRFTISADTSKNTAYLQMNSLRAEDTAVYYCARYYVYASHGWAGYGMDYWGQGTLVTVSS
VL: DIQMTQSPSSLSASVGDRVTITCRASQSVSSAVAWYQQKPGKAPKLLIYSASSLYSGVPSRFSGSRSGTDFTLTISSLQPEDFATYYCQQAGYSPITFGQGTKVEIKR
notes: also called Fsb106; clone 48
Consider B1, for which the 50% inhibitory concentration (IC50) in assay [1] is 1.7 nM. In addition, in assay [2], the Kd turned out to be 0.784 nM, the koff turned out to be 0.000159 s⁻¹ and the association rate constant (kon) was 202000 M⁻¹ s⁻¹. In addition, in assay [3], the Kd came out at 0.784 nM, the dissociation rate constant (koff) came out at 0.000159 s⁻¹ and the association rate constant (kon) turned out to be 202000 M⁻¹ s⁻¹.
